Results published in patent publication US12606635B2, “Glypican-2-binding moieties, chimeric antigen receptors and uses thereof” (Nanjing Legend Biotech Co., Ltd., priority 2020, dated 2026).

Columns and labels:
SH-SY5Y [1] = test: Serial challenge assay, CAR Ts with different co-stimulatory domains; assay type: cell-based, human; conditions: for CAR positive T cells percentage: serial SH-SY5Y challenge, FIG. 14B
Excerpt: To evaluate the persistence of GPC2 CAR T cells, exemplary CAR T cells were selected and tested in the serial challenge assay. Briefly, 4×10^5 SH-SY5Y cells and 1.33×10^5 CART cells transduced with GPC2-BBz, GPC2-CD28z, GPC2-CD27z, GPC2-CD2z, GPC2-ICOSz or GPC2-OX40z lentiviral vectors were co-cultured in 12 well plates using fresh growth medium without IL-2 (E:T ratio=1:3). Cells were harvested after three days co-culture and samples were taken for cell counting using AOPI and T cell quantified by FACs. CAR T cells were replated with fresh SH-SY5Y cells at a 1:2 E:T ratio in growth medium without IL-2 to start the next round of tumor co-culture. Samples were taken for cell counting and T cell quantification at the end of each challenge every three days. GPC2-BBz served as a positive control while the untransduced T cell (UnT) was used as a negative control.

SH-SY5Y [2] = test: IFNγ release in co-culture with SH-SY5Y; assay type: cell-based, human; conditions: for IFNγ release: Example 7, co-culture with SH-SY5Y, FIG. 8D-8F
Excerpt: (§1) In addition to the cytotoxicity data above, supernatants from the in vitro co-culture assays were also collected to assess CAR T cells-induced cytokine release, e.g., release of interferon gamma (i.e., IFNγ), as another indicator of cytotoxicity, was quantified using a HTRF human IFNγ AlphaLISA kit (Perkin Elmer, #62HIFNGPEH) per manufacturer's instruction. […] No significant cytokine release were detected against GPC2-negative cell line A-431.
(§2) Supernatants from the in vitro co-culture assays were collected to assess CAR T cells-induced cytokine release, e.g., interferon gamma (i.e., IFNγ) release as described in Example 6. […] IFNγ was not induced in GPC2-negative A-431 cells. […] Cytokine release data was consistent with the in vitro cytotoxicity data.

IMR-32 = test: IFNγ release in co-culture with IMR-32; assay type: cell-based, human; conditions: Example 7, co-culture with IMR-32, FIG. 8D-8F
Excerpt: as §1, §2

[3] = test system: neuroblastoma SH-SY5Y xenograft; assay type: in vivo, NCG mice; conditions: mouse, in vivo
Procedure: A single dose of untransduced T cells (10×10^6) or CAR T cells (5×10^6) was administered intravenously to tumor engrafted mice 9 days after tumor inoculation (FIG. 9A). […] At the end of obversion, 100% of monovalent CAR T cells (CAS70950VH6-BBz, CAS72669VH6-BBz) and 80% of multi-valent CAR T cells (CAS70950VH6-AS71529VH6-BBz) treated mice were alive (FIG. 9A). At day 42 post treatment, 2/5 mice (40%) treated with CAS72669VH6-BBz expressing CAR T cells were tumor-free and 3/5 mice (60%) treated with CAS70950VH6-AS71529VH6-BBz expressing CAR T cells were tumor-free without recurrence. […] The data highlighted the superiority of VHH-based CAR T cells in tumor regression and protection of mice from disease progression.
Moreover, the expansion and persistence of CAR T cells in vivo are also considered as critical predictors of durable clinical tumor regression in patients with cancer. […] Average 5.00±6.42% of CAR T cells were found in the peripheral blood of NCG mice treated with 5×10^6 CAS70950VH6-AS71529VH6-BBz CAR T cells, whereas less than 1% CAR T cells were detected in CAS70950VH6-BBz, CAS72669VH6-BBz and CAS71529VH6-BBz expressing CAR T groups. Expansion of CAR T cells in the CAS70950VH6-AS71529VH6-BBz group was inversely correlated with tumor size over time.

B1: GPC2-OX40z: SEQ ID NO:252, GPC2 CAR T comprised OX40 and CD3 ζ intracellular signaling domains (protein)
chain: MALPVTALLLPLALLLHAARPEVQLVESGGGLVQPGGSLRLSCAISEFTYKNTCVGWFRQAPGKGREGVAAIDSDGNTNYVDSVKGRFTISQDNSKNTVYLQMNSLRAEDTAMYYCAAGAYCGRLLLWIGNYAYWGQGTLVTVSSTTTPAPRPPTPAPTIASQPLSLRPEACRPAAGGAVHTRGLDFACDVAAILGLGLVLGLLGPLAILLALYLLRRDQRLPPDAHKPPGGGSFRTPIQEEQADAHSTLAKIRVKFSRSADAPAYKQGQNQLYNELNLGRREEYDVLDKRRGRDPEMGGKPRRKNPQEGLYNELQKDKMAEAYSEIGMKGERRRGKGHDGLYQGLSTATKDTYDALHMQALPPR
modifications: expressed in CAR T cells; GPC2-OX40z
- CAR positive T cells percentage (SH-SY5Y [1]): gradual decline

B2: GPC2-ICOSz: SEQ ID NO:250, GPC2 CAR T comprised ICOS and CD3 ζ intracellular signaling domains (protein)
chain: MALPVTALLLPLALLLHAARPEVQLVESGGGLVQPGGSLRLSCAISEFTYKNTCVGWFRQAPGKGREGVAAIDSDGNTNYVDSVKGRFTISQDNSKNTVYLQMNSLRAEDTAMYYCAAGAYCGRLLLWIGNYAYWGQGTLVTVSSTTTPAPRPPTPAPTIASQPLSLRPEACRPAAGGAVHTRGLDFACDFWLPIGCAAFVVVCILGCILICWLTKKKYSSSVHDPNGEYMFMRAVNTAKKSRLTDVTLRVKFSRSADAPAYKQGQNQLYNELNLGRREEYDVLDKRRGRDPEMGGKPRRKNPQEGLYNELQKDKMAEAYSEIGMKGERRRGKGHDGLYQGLSTATKDTYDALHMQALPPR
modifications: expressed in CAR T cells; GPC2-ICOSz
- CAR positive T cells percentage (SH-SY5Y [1]): gradual decline

B3: CAS72052VH5-BBz: humanized VHH anti-GPC2 CAR (4-1BB, CD3ζ), SEQ ID NO: 224; tested as CAR T cells (protein)
chain: MALPVTALLLPLALLLHAARPQVQLVESGGGVVQPGGSLRLSCAVSGFRYASYCMGWFRQAPGKGLEGVAAIHSDGIIRYAESVKGRFTISKDNSKNTLYLQMNSLRAEDTAVYYCAAGAYCGADAILTLYDYAFWGQGTLVTVSSTTTPAPRPPTPAPTIASQPLSLRPEACRPAAGGAVHTRGLDFACDIYIWAPLAGTCGVLLLSLVITLYCKRGRKKLLYIFKQPFMRPVQTTQEEDGCSCRFPEEEEGGCELRVKFSRSADAPAYKQGQNQLYNELNLGRREEYDVLDKRRGRDPEMGGKPRRKNPQEGLYNELQKDKMAEAYSEIGMKGERRRGKGHDGLYQGLSTATKDTYDALHMQALPPR
modifications: expressed in CAR T cells; CAS72052VH5-BBz
- IFNγ release (SH-SY5Y [2]): high levels of IFNγ
- IFNγ release (IMR-32): high levels of IFNγ

B4: GPC2-CD2z: SEQ ID NO:251, GPC2 CAR T comprised CD2 and CD3 ζ intracellular signaling domains (protein)
chain: MALPVTALLLPLALLLHAARPEVQLVESGGGLVQPGGSLRLSCAISEFTYKNTCVGWFRQAPGKGREGVAAIDSDGNTNYVDSVKGRFTISQDNSKNTVYLQMNSLRAEDTAMYYCAAGAYCGRLLLWIGNYAYWGQGTLVTVSSTTTPAPRPPTPAPTIASQPLSLRPEACRPAAGGAVHTRGLDFACDIYLIIGICGGGSLLMVFVALLVFYITKRKKQRSRRNDEELETRAHRVATEERGRKPHQIPASTPQNPATSQHPPPPPGHRSQAPSHRPPPPGHRVQHQPQKRPPAPSGTQVHQQKGPPLPRPRVQPKPPHGAAENSLSPSSNRVKFSRSADAPAYKQGQNQLYNELNLGRREEYDVLDKRRGRDPEMGGKPRRKNPQEGLYNELQKDKMAEAYSEIGMKGERRRGKGHDGLYQGLSTATKDTYDALHMQALPPR
modifications: expressed in CAR T cells; GPC2-CD2z
- CAR positive T cells percentage (SH-SY5Y [1]): gradual decline

B5: GPC2-CD28z: SEQ ID NO: 248, GPC2 CAR T comprised CD28 and CD3 ζ intracellular signaling domains (protein)
chain: MALPVTALLLPLALLLHAARPEVQLVESGGGLVQPGGSLRLSCAISEFTYKNTCVGWFRQAPGKGREGVAAIDSDGNTNYVDSVKGRFTISQDNSKNTVYLQMNSLRAEDTAMYYCAAGAYCGRLLLWIGNYAYWGQGTLVTVSSIEVMYPPPYLDNEKSNGTIIHVKGKHLCPSPLFPGPSKPFWVLVVVGGVLACYSLLVTVAFIIFWVRSKRSRLLHSDYMNMTPRRPGPTRKHYQPYAPPRDFAAYRSRVKFSRSADAPAYKQGQNQLYNELNLGRREEYDVLDKRRGRDPEMGGKPRRKNPQEGLYNELQKDKMAEAYSEIGMKGERRRGKGHDGLYQGLSTATKDTYDALHMQALPPR
modifications: expressed in CAR T cells; GPC2-CD28z
- IFNγ production against SH-SY5Y (SH-SY5Y [2]; GPC2 CAR Ts with different co-stimulatory domains, FIG. 13B): higher level of IFNγ production
- long term persistence and CAR T cells expansion (SH-SY5Y [1]; serial SH-SY5Y challenge without IL-2, FIG. 14A and 14C): comparable level of long term persistence and CAR T cells expansion
- CAR positive T cells percentage (SH-SY5Y [1]): expanded and reaching a peak level

B6: GPC2-CD27z: SEQ ID NO: 249, GPC2 CAR T comprised CD27 and CD3 ζ intracellular signaling domains (protein)
chain: MALPVTALLLPLALLLHAARPEVQLVESGGGLVQPGGSLRLSCAISEFTYKNTCVGWFRQAPGKGREGVAAIDSDGNTNYVDSVKGRFTISQDNSKNTVYLQMNSLRAEDTAMYYCAAGAYCGRLLLWIGNYAYWGQGTLVTVSSTTTPAPRPPTPAPTIASQPLSLRPEACRPAAGGAVHTRGLDFACDILVIFSGMFLVFTLAGALFLHQRRKYRSNKGESPVEPAEPCHYSCPREEEGSTIPIQEDYRKPEPACSPRVKFSRSADAPAYKQGQNQLYNELNLGRREEYDVLDKRRGRDPEMGGKPRRKNPQEGLYNELQKDKMAEAYSEIGMKGERRRGKGHDGLYQGLSTATKDTYDALHMQALPPR
modifications: expressed in CAR T cells; GPC2-CD27z
- CAR positive T cells percentage (SH-SY5Y [1]): gradual decline

B7: CAS71529VH6-BBz: humanized VHH anti-GPC2 CAR (4-1BB, CD3ζ), SEQ ID NO: 223; tested as CAR T cells (protein)
chain: MALPVTALLLPLALLLHAARPEVQLVESGGGLVQPGGSLRLSCAVSEYRYSSRYCMGWFRQAPGKGREGVAAIDSNGSADYVDSVKGRFTISKDNSKNTLYLQMNSLRAEDTAMYYCAADHLAYDCYSGATSVFRYWGQGTLVTVSSTTTPAPRPPTPAPTIASQPLSLRPEACRPAAGGAVHTRGLDFACDIYIWAPLAGTCGVLLLSLVITLYCKRGRKKLLYIFKQPFMRPVQTTQEEDGCSCRFPEEEEGGCELRVKFSRSADAPAYKQGQNQLYNELNLGRREEYDVLDKRRGRDPEMGGKPRRKNPQEGLYNELQKDKMAEAYSEIGMKGERRRGKGHDGLYQGLSTATKDTYDALHMQALPPR
modifications: expressed in CAR T cells; CAS71529VH6-BBz
- IFNγ release (SH-SY5Y [2]): high levels of IFNγ
- IFNγ release (IMR-32): high levels of IFNγ
- percentage of CAR T cells in peripheral blood [3]: less than 1%
